From US10494415B2, “Insulin-like growth factor 2 (IGF2) binding agents” (Cancer Research Technology Limited, priority 2015, dated 2019) come the findings set out here.

The test system of data set [1] is IGF2^1-67-induced hypoglycaemia. Description: IGF2-induced hypoglycaemia mouse model. To be noted: co-injected. The class given is in vivo. The source says:
All animal experiments were approved by the animal use ethical committee of Oxford University and fully complied with UK Home Office guidelines (PPL 30/2695). Wild-type C57BL/6J and 129S2 mice were used throughout. Mice were anaesthetised using a rising concentration of isoflurane in oxygenated air and maintained using 2% isoflurane with 2 L min^−1 oxygen. Blood glucose measurements were taken using an Advantage diabetic glucose meter (Roche Diagnostics, Burgess Hill, UK). In order to test the direct inhibition of IGF2-induced hypoglycaemia by Fc-domain 11^AB5, blood glucose levels were allowed to normalise for 30 min prior to taking a baseline blood glucose reading, then either 1 mg kg^−1 IGF2 only (R&D systems), […], Fc-domain 11^RHH, or Fc-domain 11^I1572A ([…]) was injected. Blood glucose measurements were taken every 10 min for the following hour. For the Fc-domain 11^AB5 mouse preloading experiment, 11.7 mg kg^−1 Fc-domain 11^AB5 or PBS, as negative control, was injected immediately after induction of anaesthesia, 30 mins later a baseline blood glucose reading was taken and 1 mg kg^−1 IGF2 ([…]) was injected, readings were then taken every 10 min for the following hour. For the mouse IGF2 preloading experiment, 1 mg kg^−1 IGF2 was injected immediately after induction of anaesthesia, 30 min later a baseline blood glucose reading was taken and either 11.7 mg kg^−1 Fc-domain 11^AB5 ([…]) or PBS was injected, readings were then taken every 10 min for the following hour.

The next data set relates to SKNMC-IGF2^1-67 cells. Nature of the data set: Growth/viability of IGF2-autocrine SKNMC cells in culture (MTS). The class given is cell-based, human. The source says:
IGF2 sensitive autocrine cell line SKNMC-IGF2^67 was generated from the Ewing sarcoma cell line SKNMC by retroviral infection with constructs containing IRES-luciferase. Autocrine growth and signalling function of the SKNMC line, including inhibition by IGF2-TRAP, was confirmed in culture using an MTS reagent (Cell Titer 96 Aqueous One Solution cell proliferation assay, Promega). For xenografts, approximately 5×10^6 SKNMC-IGF2^67 cells harvested during the growth phase of sub-confluent cell cultures were then mixed with matrigel (50:50 v/v, 100 μl/mouse) and injected (sub-cutaneous) into CD-1® (Crl:NU-1 Foxn1nu) female mice, 24 hours after establishing ALZET® mini-pump placement delivering a single concentration 40 mg kg-1 per week either IGF2-TRAP or PBS vehicle control. Tumour growth was monitored with both caliper measurements and bioluminescence. The latter was performed with a Bruker Xtreme 2D optical system 15 minutes (10 second exposure) following luciferin injection (100 μl per 20 g body weight). Tumours were excised at 28 days or when size was >1000 mm3. Fixation in formalin, embedding in paraffin and Hematoxylin and Eosin (H&E) staining was done using standard protocols. Apoptotic area was quantified using automated image analysis of brightfield images in ImageJ, applying H AEC color deconvolution filter and automated thresholding. […]

The next data set concerns SKNMC-IGF2^104 cells. Nature of the data set: IGF2-TRAP synthetic lethality screen (resazurin viability). The class given is cell-based, human. The conditions noted are these: fixed concentration of IGF2-TRAP alone, assay end point of 72 hrs. On the procedure:
For synthetic lethality screens (Target Discovery Institute, University of Oxford), either 2,500 or 5,000 SKNMC-IGF2104-IRES-luc cells were plated in medium containing 0.5% charcoal stripped FBS in 384 well plates and the IGF2-TRAP was added 24 h later to half of the plates. Using automated dispensing 307 oncology drugs that have been tested in man (TDI expanded Oncology Drug library) were added to cells 3 hrs later 10 μM, 1 μM, 100 nM and 10 nM, in the presence and absence of 250 nM IGF2-TRAP. After 48 hr of incubation, resazurin was added to a final concentration of 10 μg/mL and the fluorescence (Ex: 560 nm, Em: 590 nm) recorded at 2 hr. […] Pearson's product-moment correlation coefficient (r) was calculated to determine replicate correlation. […]
The interaction score was calculated where v was the viability readout for the drug condition, x^− was the sample mean of the negative controls and s was the sample standard deviation of the negative controls, z was calculated as z_treatment=(v−x^−)/s. z_(no_IT) was calculated from PBS control plates, comparing ‘drug d’ to same-plate negative controls ‘cells+DMSO’. z_IT was calculated from treated plates, comparing ‘drug d+IGF2-TRAP (IT)’ to same-plate negative controls ‘cells+IT+DMSO’. […] Interaction scores were calculated for each replicate r_(d,1)/r_(d,2)/r_(d,3) independently. […]

A further data set concerns IGF2 in human serum. Description: Neutral size fractionation of human serum before and after depletion with IGF2-TRAP beads, western blot. The protocol:
FIG. 14 IGF2-TRAP modifies the molecular distribution of IGF2 in human serum. Normal (left) and NICTH (right) sera were fractionated in a gel filtration column at neutral pH, alongside a molecular weight calibration marker, before and after incubation and depletion with IGF2-TRAP-loaded protein G beads. Elution fractions were analysed by western blot.
Changes in the molecular distribution of circulating IGF2 upon IGF2-TRAP treatment were analysed by neutral size fractionation of human serum (FIG. 14). In adult human serum, western blots of the fractions reveal that IGF2 is mainly the mature lower molecular weight isoform, and is predominantly present in a ternary complex with IGFBP3 and the acid labile subunit (ALS) (˜150 kDa), and to a lesser extent in a binary complex with IGFBP3 (˜40 kDa), with free IGF2 below the limit of detection. […] Pull-downs confirmed that the depleted IGF2 specifically bound IGF2-TRAP. In a second experiment, serum from a patient with Non-Islet-Cell Tumour-associated Hypoglycaemia (NICTH) secondary to a GIST tumour was utilised.

Chain of IGF2 in human serum (P01344 25-91 limits assumed): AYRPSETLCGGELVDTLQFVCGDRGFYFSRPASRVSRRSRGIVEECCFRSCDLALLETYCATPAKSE

B1: Fc-domain 11^AB5-RHH: Fc-fusion of domain 11^AB5-RHH (IGF2-TRAP); IgG2 Fc form purified from CHO cells used for xenografts (protein)
chain: NEHDDCQVTNPSTGHLFDLSSLSGRAGFTAAYAKGWGVYMSICGENENCPPGVGACFGRTRISVGKANKRLRYVDQVLQLVYKDGSHCPSKHGLSYKSVISFVCRPEAGPTNRPMLISLDKQTCTLFFSWHTPLACEQAT
modifications: left off: a dimerising Fc or GST
notes: Fc-fusion of domain 11^AB5-RHH (IGF2-TRAP); IgG2 Fc form purified from CHO cells used for xenografts
Regarding B1, the “IGF2-induced hypoglycaemia (blood glucose)” value in data set [1] (molar ratio 1:0.23) is “more efficient IGF2 antagonist than Fc-domain 11^AB5”; in data set [1] (molar ratio 1:0.23, listed as domain 11^AB5-RHH), “significantly counteracted IGF2-induced hypoglycaemia”; in data set [1] (molar ratio 1:0.5) it was “abrogation”. The figures for the “Growth of SKNMC cells expressing constitutive IGF2^1-67 in culture” value in the data set with SKNMC-IGF2^1-67 cells (listed as Fc-domain 11AB5-RHH) and with SKNMC-IGF2^1-67 cells (listed as IGF2-TRAP) were “inhibited” and “decreases the cell viability”, respectively. Further, in the data set on SKNMC-IGF2^104 cells, the “reduction in cell viability” value is 10-20%. The “IGF2 distribution in serum after IGF2-TRAP depletion” value in the data set on IGF2 in human serum (NICTH patient serum) is “depleted both lower and higher molecular weight isoforms of IGF2”; in the data set on IGF2 in human serum (normal adult human serum), “depleted IGF2 in the binary complex”.
